Assay results as given in the DeepSol protein solubility set.

Experiment: soluble on expression in E. coli; label from the status in PepcDB or PDB records

**Q.** Which “soluble on expression in E. coli” value does the source give for “MIACICAITVMAQVQTHDVKGVVFDRRQQPIVGALVTAKGTNISTITDVDGKFLLQEVPLSVKKVVVTSIGMETREVDLNVPVQLTGKRKKVSFVAHAGLSMSKYTIYGSDFKVGYEFGLGIEVRMSKRWAFQPTLQICNHGAEFNAERYGVKYQETWNPVSLDLPMLFILRCPIARKMNLAFSMGPVFSYGFAGKVKASETGKPDEEYDIYSSEYEYDYSGGKHSLLHPFSFGVAYGIGVEYKKWLAGISGKSMCLGQDDEGFEAKEHNLVLTLGVIYRF” here?
**A.** Its value is “not soluble”.

**Q.** With “MTMDLRTGLAALALAAGLALPAAPALAEMSEITIARQPSIGHLPLMIMQERRLIETMAEAEGLGEVKVNYATFAGGSNMNDALLSNTIQFAAGGVPPLILLWSKTAGTSNEVKGVAAMNSMPLLMNVNREDIRSIEDFKPGDKIALPSVKVSVQAMVLQMAAAKIWGDENYGKLDPLTVSMSHPDGLAALLARQEVTAHFTASPAQDMALREPGVHTVLNSFDVMGGPVTFNVVWTTKAFHDDNPKLFDIFRRALAQAVEVVNEDPAEAVQVYLRQAGNATDPELLASILADPQVDYTVEPSGIDKYLDFMRRIGTVKDNGQPWEAMFFE” as the sequence, how does the “soluble on expression in E. coli” value read?
**A.** Its value is “not soluble”.

**Q.** For “MAHHHHHHMLSNVPEEPEKLVREVSDLAEAFITNLKRGKLAAARSGGESLSTAAAVEMADVMSTIVRLFQNAEKDLHSTTIQLLKAGYPAAEVASMQVSRLLILVARTGDAMLRAQFATLFLMNVTRRVLSIVRESAANSKATDAELEDEAKTILNDLASDDEAAVVETPADTSSSSSNRCGMDDSTDPASPSLSAKGMKPALKRDTLVSQPLSRRGLSVRFAGTSTSSEEASGGHMRQLQQHSTSVASDFGGPLLQHTGSIVATEIPGRQLLKRAPSRCEQVLEGGGGEIEFPVRMEIFYQDALDAIDEFKRELEGMTEELCRRSTRQLHSSDTIITLGCSHTIRRYLLEAAQAGHHFKVFILEGAPLPAQATQEFAEALCSRGITAQLLPDSSAYVVMSMCTKVLVGAENVLANGGMLASIGTHVLCAAARHFAVPVLVATTTLKMSPYYPSDQLCTRLVRIARSGAQEMPWSTYGSPEDVWPSPFGVSVSDSGRRLTIHAPVTEYVPPELITLFLTNDSELLPSQIHRIVRANYSDAD”, which “soluble on expression in E. coli” value is on record?
**A.** Its value is “not soluble”.

**Q.** With “MGSDKIHHHHHHLLYRTIMVGENLESMQCEKYFESLFDVDFDYLVGLGKEMPTILFIDASKYSKDVLNDWIFAFTNIILINNNPIRAFIIRGYSEELQEFKGYYRVVSSYKSPRQIVQEIISNVNDHLDKMIGNSSRVIQMKKMLVLSMFYDGSIMILGETGSGKNLLAEVIAKLSPRGSRPFYSINCAAIPENLLESEIFGYKKGAFTGATSEKVGLIEQANNGTLFLDEIGDMPLNLQAKILAITENREFFKIGATRPIKVDVRFITATNRYDDSAMRNDLRYRLSAVKIDLPPLRERKSDISLIFDEILEKKGYLVKFENIPQDLKERFLSYSYPGNVRELINMIEEYLAVNDVVQASVNSSMSKYVKVLAEEAIVARMVNGTSYKDFLQEVYKSVSQELLLQRSEVLKNDINEIAREFGLTTRRIRDLLAELNSSAKALTPNDDDE” as the sequence, how does the “soluble on expression in E. coli” value read?
**A.** The value was “not soluble”.

**Q.** For “MAHHHHHHMDDGTRIPEDVEVFLRAARAKDTFKCAELLKETPSLINSVEAGGFSALHFAAFNGDLEMIRILLEFKPNLELRNYDNNTPLIMAAKGHQNSAIKLLVDAGAEVNLRTPTGGTAAHFAASMGYVDTVRCLVELGADVMHEDSETGTLLHWAAHSGDINCIGEMIYGFKIPINVKDAHGGTALFTALFMKKFEAVEFLLEHGADPRVMIEGDKSTPLHIAVEHANTECVKLLLVFGADPHVANTSGETPTSLAEKAKNNSALRELMKPMLSEEKRKEEAARFKTQGNKVFEGGENVKAAKFYTLAIHLDSTNHVFFSNRAAAYFNQRYYNGAYWDSLRCISLAPDWPKGYFRKAATELAMKKADEALQTCERGLRLDPKNKDLLTIKEEARRQRNK”, which “soluble on expression in E. coli” value is on record?
**A.** Its value is “soluble”.

**Q.** For “MAHHHHHHMLRGKSGLTASSSLEGGSEFSERIGNTLSSFLSESASLEVIGNELADNIANEIVGSLQNDSASFLQSEFDVKAQLKATAKKVLTEALKAALEPTEKIVASTIKPPRIKEDIYFLLSPVVRSLFNKVEDVLHKPVSDDIWNYESRGSSSEEEDEVDSDEDFLD”, which “soluble on expression in E. coli” value is on record?
**A.** The value was “soluble”.

**Q.** Which “soluble on expression in E. coli” value does the source give for “MSDPRPARAVVVGIDGSRAATHAALWAVDEAVNRDIPLRLVYVIDPSQLSAAGEGGGQSAARAALHDASRKVEATGQPVKIETEVLCGRPLTKLMQESRSAAMLCVGSVGLDHVRGRRGSVAATLAGSALCPVAVIHPSPAEPATTSQVSAVVAEVDNGVVLRHAFEEARLRGVPLRAVAVHAAETPDDVEQGSRLAHVHLSRRLAHWTRLYPEVRVDRAIAGGSACRHLAANAKPGQLFVADSHSAHELCGAYQPGCAVLTVRSANL” here?
**A.** Its value is “not soluble”.

**Q.** For “MSLFQITKVEARIANYSLHQDRVIITSLGIHDRSRYLIITLTDELENQGFGEAATVMIWSGEAAETGLWIVQNRITPLLTGSHYDHPSEILTILDRALQGNPFLKASIDIAAWDLWARRQEKPVSALIGDRKPVESVPTRFSIGAYSVEDTVRLAVESWEAGIRTLKIKTGVPGLDDVARLKAVRERLGKEPILTIDANGAYQTEDQAVAAIEELLPFNLALVEQPTPRDRIGMMARVKQRVDVPILADESIFTPGELAEALDCDAMDLLSLYPGKNGGFTNSLKMAQTAQNAGKYCVIGSNMETDLGQAAMVCLAASLTAFPVEEYASDLMTGMIYTASSTSPALELNNGRLLTPLGTGFGVEPLHDEGHHHHHH”, which “soluble on expression in E. coli” value is on record?
**A.** The value was “soluble”.

**Q.** Which “soluble on expression in E. coli” value does the source give for “MLSVSPLLQSPSSASMRFLSLDAYGRVLDWISWQDAACLYVRNAVSWTLGDPCLSIHGGISRLTGKRSVIALHPIIASRGHARTYVPVPTPALTNQALFARDDHLCLYCGQQFSRFQLTRDHVIPISKGGLDTWENVVTACFHCNSLKANRTPQQAGMRLLAVPYRPSWIEHLILSNRNILADQMAFLKAQLPKRSKLSRNLEHHHHHH” here?
**A.** Its value is “not soluble”.

**Q.** With “MSATVVDAVNAAPLSGSKEMSLEEPKKMTREDWRKKKELEEQRKLGNAPAEVDEEGKDINPHIPQYISSVPWYIDPSKRPTLKHQRPQPEKQKQFSSSGEWYKRGVKENSVITKYRKGACENCGAMTHKKKDCFERPRRVGAKFTGTNIAPDEHVQPQLMFDYDGKRDRWNGYNPEEHMKIVEEYAKVDLAKRTLKAQKLQEELASGKLVEQANSPKHQWGEEEPNSQTEKDHNSEDEDEDKYADDIDMPGQNFDSKRRITVRNLRIREDIAKYLRNLDPNSAYYDPKTRAMRENPYANAGKNPDEVSYAGDNFVRYTGDTISMAQTQLFAWEAYDKGSEVHLQADPTKLELLYKSFKVKKEDFKEQQKESILEKYGGQEHLDAPPAELLLAQTEDYVEYSRHGTVIKGQERAVACSKYEEDVKIHNHTHIWGSYWKEGRWGYKCCHSFFKYSYCTGEAGKEIVNSEECIINEITGEESVKKPQTLMELHQEKLKEEKKKKKKKKKKHRKSSSDSDDEEKKHEKLKKALNAEEARLLHVKETMQIDERKRPYNSMYETREPTEEEMEAYRMKRQRPDDPMASFLGQ” as the sequence, how does the “soluble on expression in E. coli” value read?
**A.** Its value is “not soluble”.

**Q.** Which “soluble on expression in E. coli” value does the source give for “AYESIQVTSAQKHVLHVQLNRPEKRNAMNRAFWRELVECFQKISKDSDCRAVVVSGAGKMFTSGIDLMDMASDILQPPGDDVARIAWYLRDLISRYQKTFTVIEKCPKPVIAAIHGGCIGGGVDLISACDIRYCTQDAFFQVKEVDVGLAADVGTLQRLPKVIGNRSLVNELTFTARKMMADEALDSGLVSRVFPDKDVMLNAAFALAADISSKSPVAVQGSKINLIYSRDHSVDESLDYMATWNMSMLQTQDIIKSVQAAMEKKDSKSITFSKL” here?
**A.** Its value is “soluble”.

**Q.** Which “soluble on expression in E. coli” value does the source give for “MGSDKIHHHHHHMDRYPPFGFVRAVPIASSGNMTGESISNIATALVVGGGIGGMATAISLAERGVTVDLVDLDPEWRVYGAGITITGPTLRAYRRLGMLDEIKHKGAITSKTRLFRYDGTHMLDLDEPVIEEGLPATGGIMRPVLHHIMQKRVRELEIPVRLGLTVDALENVQGGVDVRFSDRTARRYDLVVGADSVFSRVRDLAFAHMGPAQPTGQGCWRISIRKPPGLDMGEFFLGHANPCGITACGPDTVYMWMLTPHVERDSHMDDEELFVTLKALLADFGGNAGWIRDNMTREDWINYRPLAAALQPRDWFNGRIVLVGDAVHATTPHLASGAGMAVESGIVLAEELARAGDVESALRAYQERRFDRCRDVIETSVAVGRLQLEHGDPQVHAKMLEGALGRLNQPF” here?
**A.** Its value is “not soluble”.

**Q.** With “MGHHHHHHSHMYKFCANALKVILSLRGGVKVYNKENLPADSGFVIACTHSGWVDVITLGVGILPYQIHYMAKKELFQNKWIGSFLKKIHAFPVDRENPGPSSIKTPIKLLKEGEIVGIFPSGTRTSEDVPLKRGAVTIAQMGKAPLVPAAYQGPSSGKELFKKGKMKLIIGEPLHQADFAHLPSKERLAAMTEALNQRIKELENKLDQL” as the sequence, how does the “soluble on expression in E. coli” value read?
**A.** Its value is “soluble”.

**Q.** With “MEEAKQKVVDFLNSKSGSKSKFYFNDFTDLFPDMKQREVKKILTALVNDEVLEYWSSGSTTMYGLKGAGKQAAAEHED” as the sequence, how does the “soluble on expression in E. coli” value read?
**A.** Its value is “soluble”.

**Q.** With “MGSDKIHHHHHHMDKKTYKLLRTLTHLSKDLYNLTLYTVKQHYELNGTFLPFVKAYHMVKDSEPYKLLPSQVAQQTMKIVERNFRSFFHVLKERKKGNYNRPVRPPKYLPKNGHFILIFPYQSFRVKEDRIILTLGKNFAEKYGVKHLEIPLPKNVKGHRIKEIRILPRYNALWFEVEYVYEVLPEERDLDRSKYLAIDLGLDNFATCVSTTGTAFIIEGRGLKSFNRWWNKEKAKLQSQYDKQGVKFGKRMVWLLKKRKNVVNDFMNKAVSYIVNYCLENGIGNVVIGELKGVKQNTDLGRRNNQNFHYIPYGLFKQKLKAKCERYGINYIEVDEAYTSKVDALTLEPIEKREKYLGKRGETWTVPVFRWCFNKC” as the sequence, how does the “soluble on expression in E. coli” value read?
**A.** Its value is “not soluble”.

**Q.** For “MGSDKIHHHHHHMYTFTNQFISNDKNVEFLKAAMMGPNAMRLAEELSSHLNIDETMRILDLGCGCGLSTLLLTKKYGASVFAADLWISPTENYERFQSLGIADKAVPISVDATKGLPFAKGYFDLLFTVDAYHYFGDTAAMLPSLIPFVKKGGYIAVAIPGLNYEFEDKVPDEMQPFWNSEMARTLHSLDWWKDLWKKAEGIEMVDSREMACCREAWQEWLTAYHPIVAEDIKMMAAEDGKYFNLVQLIAKVL”, which “soluble on expression in E. coli” value is on record?
**A.** The value was “not soluble”.

**Q.** With “MAHHHHHHMTSLQNLFVAKLPRNLTDADLHQIFVQYNPTSAKVMLDATTGKSKGFGFVLFASEDAGRTAYEKLNKTHVTLHGHNFNLCIFPSKHDGKVAMEESNALYVRNIPLKLSQAEVEQFLRGFGPLTYCAMREDNFGGSVWVVYAEFDSVESAKRALMSLHGNRTYFNTSVAILAKYADSEETKRERRRRREQQQAEQQHLDTVHNFGSPTTGLDSNKGFAVQSQNTPLPPPPPPPMRTSPGHSSTGSTLASSYSTSDMHKEGTGASLHPPTFASISHHFAPGRHGGGGPPPAMGQPAAPPASSMLASSTLQPTQPVSGQPQQSPTPNSGSFLNVIFNPTSANNFGNSFTHYSVLDQTPSRSSPGTPLNFSFGPEMENSGALANGLGTGSHAMLSASGHAPMTPVRRSSNLSTSGSYRHNPYAPVTPVSSTHNSTGPSTPLVSSIAYPTAPLAIMHFGASHHLQGSPVALHPLGPGIGVANNHFASRGNNAYLAAPASFNDLSH” as the sequence, how does the “soluble on expression in E. coli” value read?
**A.** Its value is “not soluble”.

**Q.** Which “soluble on expression in E. coli” value does the source give for “NDAIPTIFIHGYRGTDRSLHGMIRRFDQKYNWGTESLTVNVSPDGSISTTGTYSKNEKNPLINIVFEDNRATLPQQSMWTKKIMSYLQKNYDIKKFNAIGHSMGGGAWVSYLASYEKNKSYPQVNKIVFLAVPFYPEEYVNGDQQVDIKNANNVHAKFAQKMAKVLPDNTEIMIIGGDLEDGSNSDGEVKLNSVLYGQKLFAHQKVITHVIKGPKATHSSMHESTVVDKYVGQFLWG” here?
**A.** Its value is “not soluble”.

**Q.** Which “soluble on expression in E. coli” value does the source give for “MTQLKPGACWSDNPKKVLEMLSPMNIIAITRSIPENTPNSWFIYWLTKVEEGEVRENIYAISPTKLEILPDLVKKALKLGYDGVYIDGIEALVIENGFKSVAKFLLHIKDIVLAENKFIILTLDPRALKEEEIKIIEKEFKKLELSLEHHHHHH” here?
**A.** The value was “soluble”.
